Data from article PMC8913309 (The Journal of Biological Chemistry, 2022).

Target: the molecule itself
Experiment: SEC

Row | Protein | stoichiometry N
1 | Plasmodium falciparum phosphoglycerate mutase 1 (PfPGM1), recombinant His6-tagged WT protein (enzyme) MTTYTLVLLRHGESTWNKENKFTGWTDVPLSEKGEEEAIAAGKYLKEKNFKFDVVYTSVLKRAICTAWNVLKTADLLHVPVVKTWRLNERHYGSLQGLNKSETAKKYGEEQVKIWRRSYDIPPPKLDKEDNRWPGHNVVYKNVPKDALPFTECLKDTVERVLPFWFDHIAPDILANKKVMVAAHGNSLRGLVKHLDNLSEADVLELNIPTGVPLVYELDENLKPIKHYYLLDSEELKKKMDEVANQGKAK | 4
2 | PfPGM1 K100R, recombinant His6-tagged mutant protein (enzyme, Plasmodium falciparum) MTTYTLVLLRHGESTWNKENKFTGWTDVPLSEKGEEEAIAAGKYLKEKNFKFDVVYTSVLKRAICTAWNVLKTADLLHVPVVKTWRLNERHYGSLQGLNRSETAKKYGEEQVKIWRRSYDIPPPKLDKEDNRWPGHNVVYKNVPKDALPFTECLKDTVERVLPFWFDHIAPDILANKKVMVAAHGNSLRGLVKHLDNLSEADVLELNIPTGVPLVYELDENLKPIKHYYLLDSEELKKKMDEVANQGKAK | 4
3 | PfPGM1 P163A, recombinant His6-tagged mutant protein (enzyme, Plasmodium falciparum) MTTYTLVLLRHGESTWNKENKFTGWTDVPLSEKGEEEAIAAGKYLKEKNFKFDVVYTSVLKRAICTAWNVLKTADLLHVPVVKTWRLNERHYGSLQGLNKSETAKKYGEEQVKIWRRSYDIPPPKLDKEDNRWPGHNVVYKNVPKDALPFTECLKDTVERVLAFWFDHIAPDILANKKVMVAAHGNSLRGLVKHLDNLSEADVLELNIPTGVPLVYELDENLKPIKHYYLLDSEELKKKMDEVANQGKAK | 2
